We go through 12 molecules from US20120201746A1 (AbbVie / Abbott, published 2012).

Sequences and labels used below:
B1: cMet-Mut1 (antibody, human IgG1, kappa)
heavy: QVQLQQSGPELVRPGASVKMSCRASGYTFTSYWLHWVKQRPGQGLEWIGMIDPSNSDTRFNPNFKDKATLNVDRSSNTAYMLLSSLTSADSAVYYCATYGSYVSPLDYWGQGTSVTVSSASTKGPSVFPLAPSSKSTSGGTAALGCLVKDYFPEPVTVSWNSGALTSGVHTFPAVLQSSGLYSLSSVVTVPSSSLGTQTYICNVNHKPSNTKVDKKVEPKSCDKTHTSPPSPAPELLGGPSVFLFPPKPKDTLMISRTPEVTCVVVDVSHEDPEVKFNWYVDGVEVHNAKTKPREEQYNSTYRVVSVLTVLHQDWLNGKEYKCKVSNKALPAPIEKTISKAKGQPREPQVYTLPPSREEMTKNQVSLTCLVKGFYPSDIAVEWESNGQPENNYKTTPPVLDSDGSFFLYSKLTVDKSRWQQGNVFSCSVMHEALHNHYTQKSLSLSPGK
light: DFMMSQSPSSLTVSVGEKVTVSCKSSQSLLYTSSQKNYLAWYQQKPGQSPKLLIYWASTRESGVPDRFTGSGSGTDFTLTITSVKADDLAVYYCQQYYAYPWTFGGGTKLELKRTVAAPSVFIFPPSDEQLKSGTASVVCLLNNFYPREAKVQWKVDNALQSGNSQESVTEQDSKDSTYSLSSTLTLSKADYEKHKVYACEVTHQGLSSPVTKSFNRGEC
notes: also called cMetHC-Mut1
B2: cMet-Mut18 (antibody, human IgG1, kappa)
heavy: QVQLQQSGPELVRPGASVKMSCRASGYTFTSYWLHWVKQRPGQGLEWIGMIDPSNSDTRFNPNFKDKATLNVDRSSNTAYMLLSSLTSADSAVYYCATYGSYVSPLDYWGQGTSVTVSSASTKGPSVFPLAPSSKSTSGGTAALGCLVKDYFPEPVTVSWNSGALTSGVHTFPAVLQSSGLYSLSSVVTVPSSSLGTQTYICNVNHKPSNTKVDKKVEPKSCDKTHTSPPSPAPELLGGPSVFLFPPKPKDTLMISRTPEVTCVVVDVSHEDPEVKFNWYVDGVEVHNAKTKPREEQYNSTYRVVSVLTVLHQDWLNGKEYKCKVSNKALPAPIEKTISKAKGQPREPQVYTLPPSREEMTKNQVSLTCLVKGFYPSDIAVEWESNGQPENNYKTTPPVLDSDGSFRLYSKLTVDKSRWQQGNVFSCSVMHEALHNHYTQKSLSLSPGK
light: B1 light
notes: Half-Ig; CH3 F405R; 94.5 % half-Ig by SEC; also called cMetHC-Mut18; cMet half Ig mut18
B3: cMet-Mut3 (antibody, human IgG1, kappa)
heavy: B2 heavy with T368F, L370F, P398A, Y409R, K411D
light: B1 light
notes: Half-Ig; CH3 T366F, L368F, P395A, F405R, Y407R, K409D; 82.4 % half-Ig by SEC; also called cMetHC-Mut3
B4: cMet-Mut13 (antibody, human IgG1, kappa)
heavy: B2 heavy with P398A, R407F, K411D
light: B1 light
notes: Half-Ig; CH3 P395A, K409D; 94.9 % half-Ig by SEC; also called cMetHC-Mut13
B5: cMet-Mut14 (antibody, human IgG1, kappa)
heavy: B2 heavy with Y409R
light: B1 light
notes: Half-Ig; CH3 F405R, Y407R; 96.1 % half-Ig by SEC; also called cMetHC-Mut14; cMet half Ig mut14
B6: cMet-Mut20 (antibody, human IgG1, kappa)
heavy: B2 heavy with R407F, K411D
light: B1 light
notes: Half-Ig; CH3 K409D; 91.7 % half-Ig by SEC; also called cMetHC-Mut20
B7: cMet-Mut19 (antibody, human IgG1, kappa)
heavy: B2 heavy with R407F, Y409R
light: B1 light
notes: Half-Ig; CH3 Y407R; 94.4 % half-Ig by SEC; also called cMetHC-Mut19
B8: cMet-Mut10 (antibody, human IgG1, kappa)
heavy: B2 heavy with P398A, K411D
light: B1 light
notes: Half-Ig; CH3 P395A, F405R, K409D; 97.5 % half-Ig by SEC; also called cMetHC-Mut10; cMet half Ig mut10
B9: cMet-Mut11 (antibody, human IgG1, kappa)
heavy: B2 heavy with P398A
light: B1 light
notes: Half-Ig; CH3 P395A, F405R; 94.8 % half-Ig by SEC; also called cMetHC-Mut11; cMet half Ig mut11
B10: cMet-Mut5 (antibody, human IgG1, kappa)
heavy: B2 heavy with P398A, Y409R, K411D
light: B1 light
notes: Half-Ig; CH3 P395A, F405R, Y407R, K409D; 97.2 % half-Ig by SEC; also called cMetHC-Mut5
B11: cMet-Mut18-QL (antibody, human IgG1, kappa)
heavy: B2 heavy with T252Q, M430L
light: B1 light
notes: also called cMetHC-Mut18-QL
B12: cMet-Mut18-GTv2 (antibody, human IgG1, kappa)
heavy: B2 heavy with T309A, E382A, N436A
light: B1 light
notes: also called cMetHC-Mut18-GTv2

Numbering of substitutions follows the chain as printed. Numbers in names are those of the source.

In one test the target is T1, Neonatal Fc receptor (FcRn) on CHO-FcRnGPI cells.
T1 construct: whole, on cells; also called FcRn receptor
T1 sequence (P55899 24-297, chain 1 of 2): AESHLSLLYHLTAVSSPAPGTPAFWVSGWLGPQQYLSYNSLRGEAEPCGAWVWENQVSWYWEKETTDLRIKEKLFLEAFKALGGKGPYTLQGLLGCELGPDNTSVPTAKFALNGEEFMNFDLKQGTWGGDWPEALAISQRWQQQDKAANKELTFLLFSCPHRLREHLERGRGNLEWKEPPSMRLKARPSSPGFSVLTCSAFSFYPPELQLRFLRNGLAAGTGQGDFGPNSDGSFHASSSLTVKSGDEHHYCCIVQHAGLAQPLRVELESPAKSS
T1 sequence (P61769 21-119, chain 2 of 2, further chain): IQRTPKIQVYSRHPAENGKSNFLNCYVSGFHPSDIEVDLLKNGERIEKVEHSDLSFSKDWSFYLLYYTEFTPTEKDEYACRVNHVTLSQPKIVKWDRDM
As to the kind of experiment: flow cytometry on CHO-FcRnGPI cells, pH 6.4. For orientation: Flow cytometry measures light scatter and fluorescence of single cells or particles in a stream.
Procedure: (§1) CHO-FcRnGPI cells (Stable FcRn receptor expressor) and CHO-pBudl l cells (non-FcRn expressor) were aliquotted into 96-well plates at 1×10⁵ cells/well. Cells were resuspended in 150 μl FACS buffer. Anti-c-Met Ab and half-Ig binding proteins were diluted to 100 μg/ml in FACS buffer pH 6.4 and pH 7.4. 30 μl of diluted antibody or half-Ig binding protein was added to each well and incubated on ice for 1 hour. Following 2 washes with FACS buffer, 50 μl of secondary antibody R-phycoerythrin-conjugated AfiniPure F(ab′)₂ Fragment goat anti-human IgG (Jackson ImmunoResearch®, West Grove, Pa.) diluted in FACS buffer pH 6.4 or pH7.4 was added. The mixture was incubated for 30 min on ice. The cells were resuspended in 100 μl PBS with 1% FBS (Invitrogen®, Carlsbad, Calif.) and 2 μg/ml propidium iodide (Invitrogen®, Carlsbad, Calif.) of the corresponding pH. Final FACS data were acquired on a FACScan (Becton Dickinson, Franklin Lakes, N.J.).
What is called EC50 is the concentration needed to bring the measured effect to its halfway point. B1 showed an EC50 of 1.09 µM. This lies in the single-digit micromolar range.

B2 came in with an EC50 of 1980 µM.

Regarding B3, it took 1.13 µM to reach a half-maximal effect (EC50).

Regarding B4, a half-maximal effect (EC50) was put at 0.63 µM.

On to B5, for which the EC50 worked out at 1.45 µM.

Consider B6, for which the response was half-maximal at 1.23 µM (EC50).

B7 came in with an EC50 of 2.98 µM. This EC50 is about 2.4-fold higher than that of the molecule before.

As to B8, the EC50 came to 293 µM. Against the preceding molecule, the EC50 is about 98-fold higher.

B9 showed an EC50 of 4700 µM.

Turning to B10, the EC50 amounted to 3290 µM.

Another test deals with T1, Neonatal Fc receptor (FcRn) on …. As to the kind of experiment: flow cytometry on CHO-FcRnGPI cells, pH 6.4. The source holds these as a separate data set.
Procedure: as §1
With B11, the EC50 amounted to 0.035 µM.

With B12, the EC50 is 0.015 µM.
